± gives the standard deviation of the averaged measurements.
Tested on: ATP
Experiment: switch fluorescence ratio, 500 uM ATP over buffer (Cy3 cluster intensity, sum of 5 cycles each) (fold (ratio)); higher = stronger signal-on switching upon ATP binding; sequences stand for … in TCGTCGGCAGCGTCAGATGTGTATAAGAGACAGTTTTTTTTTTTTTTTTTTTTTTTTT…TC
Conditions: aptamer strand: ATP DNA aptamer (quencher-CACCTGGGGGAGTATTGCGGAGGAAGG + anchor), 100 nM annealed; ATP concentration: 500 uM
Procedure, shortened: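 For every switch-domain sequence, the fluorescence ratio is the mean of per-cluster values, each being summed target-cycle Cy3 intensity over summed buffer-cycle Cy3 intensity. Clusters outside 100-1000 RFU were excluded. On a modified Illumina MiSeq flow-cell, the Cy3-labelled switching-strand clusters were annealed to 100 nM quencher-labelled ATP aptamer, imaged in selection buffer and then after 15 min with 500 uM ATP at 22 °C. Five such cycles were run, with NaOH stripping and re-annealing between them.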
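Further: ATP exposure 15 min at 22 °C before imaging.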

Sequence	switch fluorescence ratio
CAGGGGGGCG	1.04 ± 0.088
CAGGGGTAAA	1.01 ± 0.019
CAGGGGTAGG	1.09 ± 0.044
CAGGGGTCTG	0.997 ± 0.038
CAGGGGTGGT	1.01 ± 0.039
CAGGGGTTTG	1 ± 0.051
CAGGGTAGTG	1.01 ± 0.045
CAGGGTGCTA	1 ± 0.075
CAGGGTGGTT	1.03 ± 0.028
CAGGGTTGGC	1.03 ± 0.012
CAGGTAGGCG	0.984 ± 0.016
CAGGTAGGGG	0.9507 ± 0.0065
CAGGTAGTGT	1.02 ± 0.024
CAGGTAGTTG	1.004 ± 0.0032
CAGGTATAGG	0.9864 ± 0.0054
CAGGTCAGGG	0.998 ± 0.014
CAGGTCAGGT	1.01 ± 0.045
CAGGTCGCGG	1.005 ± 0.006
CAGGTCTTAT	1.01 ± 0.028
CAGGTCTTGC	1 ± 0.015
CAGGTGAGAA	1.16 ± 0.026
CAGGTGAGTT	1.34 ± 0.32
CAGGTGATAC	2.42 ± 0.29
CAGGTGGGGG	1.01 ± 0.033
CAGGTGGTGT	1.11 ± 0.066

Sequence	switch fluorescence ratio
CAGGTTAATT	1.02 ± 0.044
CAGGTTCACG	1.02 ± 0.032
CAGGTTGAAC	0.9866 ± 0.0021
CAGGTTGTGT	0.99 ± 0.031
CAGGTTTCTA	1 ± 0.043
CAGGTTTGG	0.982 ± 0.014
CAGTAAAAGG	1.01 ± 0.028
CAGTAAAGGA	1.02 ± 0.053
CAGTAATTGA	1 ± 0.026
CAGTACGCGT	1.04 ± 0.017
CAGTAGAAAG	1.01 ± 0.0081
CAGTAGCGGT	1.97 ± 0.35
CAGTAGGGCA	0.982 ± 0.041
CAGTATTTTG	0.9952 ± 0.0031
CAGTCCGGGC	0.991 ± 0.028
CAGTCGACTG	1.01 ± 0.019
CAGTCGCCAG	1.02 ± 0.0024
CAGTGAATGT	0.976 ± 0.039
CAGTGATGAG	1.03 ± 0.012
CAGTGATTAT	1.01 ± 0.018
CAGTGCCTGT	1.01 ± 0.034
CAGTGCGCTA	1.15 ± 0.02
CAGTGGCGTC	1.05 ± 0.02
CAGTGGGACT	0.974 ± 0.024
CAGTGGGCGG	1.06 ± 0.07

Sequence	switch fluorescence ratio
CAGTGGGCGT	1.04 ± 0.026
CAGTGGGTGG	0.982 ± 0.027
CAGTGGGTTT	0.97 ± 0.032
CAGTGGTACG	1.02 ± 0.065
CAGTGGTTGG	1.01 ± 0.013
CAGTGTGAGC	1.01 ± 0.039
CAGTTAATTG	1.03 ± 0.013
CAGTTACGGT	1.003 ± 0.0068
CAGTTAGATA	1.02 ± 0.031
CAGTTAGCAT	1.101 ± 0.0097
CAGTTATGTT	0.993 ± 0.036
CAGTTCATTA	0.9976 ± 0.0031
CAGTTCGGCC	1.01 ± 0.024
CAGTTGCCAG	0.953 ± 0.019
CAGTTGGACG	1.04 ± 0.11
CAGTTGTGGG	0.9802 ± 0.0066
CAGTTGTTGC	0.984 ± 0.023
CAGTTTGATG	1.003 ± 0.0083
CAGTTTGGGG	0.982 ± 0.019
CAGTTTGTTT	0.9881 ± 0.0031
CAGTTTTTAT	1.01 ± 0.026
CAGTTTTTTA	0.983 ± 0.016
CATAAGATGT	1 ± 0.021
CATAAGGTTG	0.991 ± 0.017
CATAATTAGT	0.994 ± 0.018

Sequence	switch fluorescence ratio
CATAATTGCT	1.01 ± 0.0059
CATAATTTTA	1.007 ± 0.01
CATACGGGGT	1.01 ± 0.032
CATAGCGTTA	1.03 ± 0.011
CATAGGAAGG	0.987 ± 0.013
CATAGGGGGG	0.988 ± 0.015
CATAGGGTGA	1.01 ± 0.026
CATAGGTAGT	0.981 ± 0.016
CATAGGTTTT	1.03 ± 0.066
CATAGTAGAA	0.978 ± 0.034
CATAGTATGG	0.9706 ± 0.0029
CATAGTGCTT	0.9715 ± 0.0043
CATATAGCAC	1.18 ± 0.019
CATATAGGGT	0.976 ± 0.038
CATATAGTTC	0.984 ± 0.03
CATATGACGG	0.986 ± 0.038
CATATGGTTG	0.99 ± 0.018
CATATGTAGA	0.997 ± 0.023
CATCAGGCGG	1.02 ± 0.015
CATCAGGTTT	0.991 ± 0.0015
CATCGAATGC	1.23 ± 0.12
CATCGCATCT	1.79 ± 0.056
CATCGCGGTT	1.07 ± 0.022
CATCGGGACG	1.04 ± 0.053
CATCGGGGGT	1.29 ± 0.67

Sequence	switch fluorescence ratio
CATCGGTAGA	1.02 ± 0.017
CATCTATCCG	0.963 ± 0.012
CATCTCTTGC	1.07 ± 0.036
CATCTGGGGG	1.04 ± 0.054
CATCTGTTGT	0.9856 ± 0.0092
CATGAAAAAT	1 ± 0.011
CATGAAGATG	0.98 ± 0.012
CATGAATAG	0.994 ± 0.011
CATGAATATG	1.01 ± 0.03
CATGAATATT	0.99 ± 0.037
CATGACCTTT	1.04 ± 0.016
CATGAGAAGA	0.999 ± 0.029
CATGAGACCG	1.03 ± 0.016
CATGAGGAGT	1.01 ± 0.0022
CATGATGAGC	0.9668 ± 0.0079
CATGATTATG	0.972 ± 0.012
CATGATTTGG	0.982 ± 0.028
CATGCAAATA	1.07 ± 0.034
CATGCATTTT	1.09 ± 0.079
CATGCGAATA	1.1 ± 0.033
CATGCGCGGA	1.147 ± 0.0013
CATGCGCTTC	2.39 ± 0.12
CATGCTGGGT	1.0358 ± 0.001
CATGCTTGGG	0.999 ± 0.012
CATGCTTTTG	1.013 ± 0.0021

Sequence	switch fluorescence ratio
CATGGAACCT	1.92 ± 0.11
CATGGATAGC	0.963 ± 0.012
CATGGATGGC	1.06 ± 0.03
CATGGGCTGG	0.9965 ± 0.001
CATGGGGGCT	0.964 ± 0.024
CATGGGGGTT	0.991 ± 0.025
CATGGGGTGC	1.04 ± 0.024
CATGGTATGT	1.01 ± 0.038
CATGGTGAGC	0.956 ± 0.041
CATGTAAGGG	1.003 ± 0.0053
CATGTACGTG	1.0359 ± 9.4e-05
CATGTAGAGG	0.976 ± 0.033
CATGTATGTT	1.01 ± 0.012
CATGTATTGA	0.964 ± 0.024
CATGTCTCTC	1.02 ± 0.032
CATGTTACGG	1.055 ± 0.0065
CATGTTGTAT	0.98166 ± 0.00075
CATTAAGCTG	1 ± 0.12
CATTAATTGT	1.025 ± 0.0034
CATTACAGGG	1.01 ± 0.023
CATTACCGAG	1.049 ± 0.0037
CATTAGAATC	0.997 ± 0.028
CATTAGGTCT	0.981 ± 0.038
CATTATAGGC	1.004 ± 0.002
CATTATCATT	0.97 ± 0.018

Sequence	switch fluorescence ratio
CATTATTATT	0.9975 ± 0.0058
CATTCCGTTC	1.42 ± 0.017
CATTCGAATA	1.08 ± 0.037
CATTCGTCGA	1.2 ± 0.04
CATTCGTTGA	1.05 ± 0.08
CATTCGTTTG	0.96 ± 0.0097
CATTCTGATC	1 ± 0.056
CATTGAATGG	1 ± 0.015
CATTGATGAA	0.988 ± 0.06
CATTGTAAGT	1 ± 0.025
CATTTAGACG	1.01 ± 0.11
CATTTATTTG	1.01 ± 0.014
CATTTATTTT	1.01 ± 0.044
CATTTCGGCG	0.999 ± 0.044
CATTTCGTAA	1.18 ± 0.02
CATTTCTTG	0.985 ± 0.029
CATTTGAGCC	0.973 ± 0.013
CATTTGGTCC	1.008 ± 0.0012
CATTTGTGGC	0.961 ± 0.058
CATTTGTTTT	1.02 ± 0.021
CATTTTAGAG	0.98256 ± 0.00032
CATTTTAGTG	1 ± 0.0021
CATTTTCTAG	1.03 ± 0.044
CATTTTGTGG	0.987 ± 0.012
CATTTTTAAC	0.977 ± 0.014

Sequence	switch fluorescence ratio
CATTTTTGAT	1.01 ± 0.02
CATTTTTGTT	0.979 ± 0.031
CATTTTTTT	0.99009 ± 0.00046
CCAAAAAGTG	1.03 ± 0.031
CCAAAACAGC	1.028 ± 0.0022
CCAAAAGGCA	1.0416 ± 0.00044
CCAAAGATTG	0.993 ± 0.064
CCAAAGGGAC	1.089 ± 0.0061
CCAAATGGTG	1.16 ± 0.021
CCAACAGGGA	1.112 ± 0.0014
CCAACCAAGG	1.16 ± 0.056
CCAACGGGCA	1.08 ± 0.031
CCAAGCACTT	1.45 ± 0.14
CCAAGCTTGT	1 ± 0.041
CCAAGGCGAT	2.33 ± 1.8
CCAAGGCTTT	1.03 ± 0.026
CCAAGGGGCG	0.987 ± 0.0077
CCAAGGGTAT	0.9873 ± 0.0019
CCAAGTCCTG	0.97 ± 0.092
CCAATGTACT	1.36 ± 0.05
CCAATGTCTC	1.08 ± 0.013
CCAATTTTGG	0.977 ± 0.013
CCACAAGGGG	1.02 ± 0.019
CCACACGAGA	1.18 ± 0.066
CCACACTGAT	1.025 ± 0.0025

From the supplement of paper PMC10126150
